{"source": "IntAct's records for PubMed 21743455", "parents": {"B1": {"name": "Wnt inhibitory factor 1 (Homo sapiens), Q9Y5W5 (parent)", "chain": "MARRSAFPAAALWLWSILLCLLALRAEAGPPQEESLYLWIDAHQARVLIGFEEDILIVSEGKMAPFTHDFRKAQQRMPAIPVNIHSMNFTWQAAGQAEYFYEFLSLRSLDKGIMADPTVNVPLLGTVPHKASVVQVGFPCLGKQDGVAAFEVDVIVMNSEGNTILQTPQNAIFFKTCQQAECPGGCRNGGFCNERRICECPDGFHGPHCEKALCTPRCMNGGLCVTPGFCICPPGFYGVNCDKANCSTTCFNGGTCFYPGKCICPPGLEGEQCEISKCPQPCRNGGKCIGKSKCKCSKGYQGDLCSKPVCEPGCGAHGTCHEPNKCQCQEGWHGRHCNKRYEASLIHALRPAGAQLRQHTPSLKKAEERRDPPESNYIW"}}, "data": [{"variants_of": "B1", "conditions": "with wnt3a_mouse Wnt3a", "values": [{"variant": "MARRSAFPAAALWLWSILLCLLALRAEAGPPQEESLYLWIDAHQARVLIGFEEDILIVSEGKMAPFTHDFRKAQQRWPAIPVNIHSMNFTWQAAGQAEYFYEFLSLRSLDKGIMADPTVNVPLLGTVPHKASVVQVGFPCLGKQDGVAAFEVDVIVMNSEGNTILQTPQNAIFFKTCQQAECPGGCRNGGFCNERRICECPDGFHGPHCEKALCTPRCMNGGLCVTPGFCICPPGFYGVNCDKANCSTTCFNGGTCFYPGKCICPPGLEGEQCEISKCPQPCRNGGKCIGKSKCKCSKGYQGDLCSKPVCEPGCGAHGTCHEPNKCQCQEGWHGRHCNKRYEASLIHALRPAGAQLRQHTPSLKKAEERRDPPESNYIW", "note": "[M77W]", "effect of a mutation on the interaction": "decreasing interaction"}]}]}
